Assay results: patent US20250276077A1 (IMMUNOME, published 2025)

Key:
[1] = target: human 4-1BB on reporter cells (human, UniProt Q07011 24-255); test: cell-based or functional assay
[2] = target: T1, Human EphA2 (ephrin receptor A2) on cells (human, UniProt P29317 25-976); test: cell-based or functional assay
[3] = target: T1, Human EphA2 (ephrin receptor A2) on …; test: cell-based or functional assay; remark: listed apart in the source
[4] = target: T2, hEphA2-FN12-(327-534) - Fc (human, UniProt P29317 327-534); test: SPR Biacore, 25 C; hEphA2-Fc fusion captured by anti-human Fc, Fab analyte
T2 construct: also called FN1-FN2 domains Fc fusion; not shown: human Fc, C-terminal to the EphA2 part
Description: (§1) The hEphA2-Fc fusions were captured with an anti-human Fe immobilized to a CM5 chip.
(§2) Biacore® assays were conducted at 25° C. using HBS-EP+ buffer (0.01 M HEPES pH 7.4, 0.15 M NaCl, 3 mM EDTA, 0.005% v/v Surfactant P20). Data was double-reference subtracted and data was analyzed using 1:1 Langmuir binding model and steady-state model in Biacore Evaluation software.
(§3) Binding to hEphA2-ECD-Fc tested using 100, 300, and 900 nM analyte.

[5] = target: T3, hEphA2-FN2-(437-534) - Fc (human, UniProt P29317 437-534); test: as above
T3 construct: also called FN2 domain Fc fusion; not shown: human Fc, C-terminal to the EphA2 part
Description: as §1, §2, §3

[6] = target: T4, hEphA2-clv385-534-Fc (human, UniProt P29317 385-534); test: as above
T4 construct: Recombinant fragment representing a cleavage form; not shown: human Fc, C-terminal to the EphA2 part
Description: as §1, §2, §3

[7] = target: T5, hEphA2-clv395-534-Fc (human, UniProt P29317 395-534); test: as above
T5 construct: Recombinant fragment representing a cleavage form; not shown: human Fc, C-terminal to the EphA2 part
Description: as §1, §2, §3

[8] = target: T6, hEphA2-clv432-534-Fc (human, UniProt P29317 432-534); test: as above
T6 construct: Recombinant fragment representing a cleavage form; not shown: human Fc, C-terminal to the EphA2 part
Description: as §1, §2, §3

[9] = target: T7, hEphA2-clv435-534-Fc (human, UniProt P29317 435-534); test: as above
T7 construct: Recombinant fragment representing a cleavage form; not shown: human Fc, C-terminal to the EphA2 part
Description: as §1, §2, §3

[10] = target: T1, Human EphA2 (ephrin receptor A2) on …; test: cell-based or functional assay; remark: listed apart in the source
[11] = target: T1, Human EphA2 (ephrin receptor A2) on …; test: cell-based or functional assay; remark: listed apart in the source
[12] = target: T8, C-terminally His-tagged hEphA2-FN2 (Thr437-Asn534+His tag) (human, UniProt P29317 437-534); test: SPR Biacore T200, 25 C; mIgG2a as immobilized ligand, hEphA2-FN2-His analyte
T8 construct: also called FN2 domain of hEphA2
Description: Binding of EphA2 antibodies to the FN2 domain of hEphA2 was measured using the Biacore® T200 SPR system. Biacore® assays were conducted at 25° C. using HBS-EP+ buffer (0.01 M HEPES pH 7.4, 0.15 M NaCl, 3 mM EDTA, 0.005% v/v Surfactant P20) using the FN2 domain as the analyte with the antibodies in mIgG2a format as the immobilized ligand. Data was analyzed using 1:1 Langmuir binding model and steady-state model in Biacore Evaluation software.
C-terminally His-tagged human EphA2 FN2 domain (Thr437-Asn534+His tag) was used as the analyte. The analyte was associated for 120 seconds and dissociated for 100 seconds or 300 seconds at 30 μL/min.

[13] = target: T8, C-terminally His-tagged hEphA2-FN2 …; test: SPR Biacore T200, 25 C; mIgG2a captured by anti-mouse Fc, hEphA2-FN2-His analyte; steady-state monovalent KD
Description: Binding of antibodies to the FN2 domain of hEphA2 was measured using the Biacore® T200 SPR system at 25° C. using HBS-EP+ buffer (0.01 M HEPES pH 7.4, 0.15 M NaCl, 3 mM EDTA, 0.005% v/v Surfactant P20). Antibodies in mIgG2a format were captured at levels between 475-715 RU via an anti-mouse Fc antibody immobilized to a CM5 chip. Binding was assessed using a titration of C-terminally His-tagged hEphA2-FN2 (Thr437-Asn534+His tag) associated for 30 s or 75 s at 30 μL/min. Data was double-reference subtracted using both a surface without captured antibody and from injections of HBS-EP+ buffer. The equilibrium response was measured at 4 seconds before the end of association with a window of 5 seconds and fit using the Biacore T200 Evaluation Software 3.1 with the Steady State Affinity Model.

[14] = target: T1, Human EphA2 (ephrin receptor A2) on …; test: cell-based or functional assay; remark: listed apart in the source
[15] = target: T1, Human EphA2 (ephrin receptor A2) on …; test: flow cytometry on A549 cells
Description: (§4) Surface binding of the antibodies to in vitro grown cell lines was assessed by flow cytometry. Tumor cells were detached from their culture plate using Versene and counted. Cells were staining in BSA-containing buffer with primary antibody for 30 minutes at 4° C. with shaking. Following, cells were washed and stained with secondary PE-labeled antibody for 30 minutes at 4° C. with shaking. Before analysis on an Intellicyt iQue3 scanner, cells were counterstained with DAPI. MedFI values from live, single cells was expressed as fold over isotype control.

[16] = target: T1, Human EphA2 (ephrin receptor A2) on …; test: cell-based or functional assay; remark: listed apart in the source
[17] = target: T9, mouse EphA2 on mouse tumour cells (mouse, UniProt Q03145 26-977); test: cell-based or functional assay
[18] = target: T10, EphA4 (homologous receptor, screening at Integral Molecular) (human, UniProt P54764 20-986); test: membrane protein screening on cells
T10 construct: whole, on cells

[19] = target: T9, mouse EphA2 on mouse tumour cells; test: flow cytometry, CT26 cells (in vitro)
Description: as §4

[20] = target: T11, EphA4_ECD (aa 23-546), Full ECD, displayed on yeast (human, UniProt P54764 23-546); test: yeast surface display, flow cytometry titration
T11 construct: also called EphA4 full ECD

[21] = target: T12, FcGR1 (human, UniProt P12314 16-374); test: flow cytometry, 6,000 human membrane proteins expressed on HEK293 cells
T12 construct: whole, on cells
T12 sequence (P12314 16-374): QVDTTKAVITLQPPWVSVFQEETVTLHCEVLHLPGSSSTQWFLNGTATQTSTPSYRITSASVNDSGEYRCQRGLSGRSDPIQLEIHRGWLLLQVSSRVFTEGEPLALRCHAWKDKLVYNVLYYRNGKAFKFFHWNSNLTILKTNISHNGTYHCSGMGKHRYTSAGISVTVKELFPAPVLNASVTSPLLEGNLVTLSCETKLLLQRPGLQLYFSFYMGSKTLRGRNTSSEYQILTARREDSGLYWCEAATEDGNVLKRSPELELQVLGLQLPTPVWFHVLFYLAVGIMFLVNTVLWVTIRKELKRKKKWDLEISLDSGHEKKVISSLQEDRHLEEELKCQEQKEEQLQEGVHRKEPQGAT

T5 sequence (P29317 395-534): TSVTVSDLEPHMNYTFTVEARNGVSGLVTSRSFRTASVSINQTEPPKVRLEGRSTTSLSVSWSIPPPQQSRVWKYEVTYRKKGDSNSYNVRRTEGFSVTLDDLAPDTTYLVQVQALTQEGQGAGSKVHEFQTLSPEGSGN
T7 sequence (P29317 435-534): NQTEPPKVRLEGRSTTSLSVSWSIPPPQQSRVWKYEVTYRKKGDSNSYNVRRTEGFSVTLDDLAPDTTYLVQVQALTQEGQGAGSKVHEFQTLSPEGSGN
T6 sequence (P29317 432-534): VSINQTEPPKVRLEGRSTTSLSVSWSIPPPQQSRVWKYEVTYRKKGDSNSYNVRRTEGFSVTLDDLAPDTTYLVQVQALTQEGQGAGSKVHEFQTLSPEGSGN
T2 sequence (P29317 327-534): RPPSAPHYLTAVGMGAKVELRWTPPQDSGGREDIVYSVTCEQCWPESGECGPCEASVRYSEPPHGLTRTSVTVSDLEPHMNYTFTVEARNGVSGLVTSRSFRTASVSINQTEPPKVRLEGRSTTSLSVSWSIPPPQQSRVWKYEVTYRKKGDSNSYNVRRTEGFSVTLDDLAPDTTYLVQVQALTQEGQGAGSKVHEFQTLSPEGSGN
T4 sequence (P29317 385-534): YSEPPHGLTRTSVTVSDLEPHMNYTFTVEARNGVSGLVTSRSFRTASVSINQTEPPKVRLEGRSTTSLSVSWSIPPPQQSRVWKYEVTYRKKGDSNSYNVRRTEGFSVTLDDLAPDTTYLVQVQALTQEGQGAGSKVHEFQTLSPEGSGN
T8 sequence (P29317 437-534 limits assumed): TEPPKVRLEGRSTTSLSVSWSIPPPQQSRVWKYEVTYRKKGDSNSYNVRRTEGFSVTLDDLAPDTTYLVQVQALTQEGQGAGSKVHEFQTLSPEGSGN
T3 sequence (P29317 437-534): as the sequence (P29317 437-534 limits assumed) above
T1 sequence (P29317 25-976): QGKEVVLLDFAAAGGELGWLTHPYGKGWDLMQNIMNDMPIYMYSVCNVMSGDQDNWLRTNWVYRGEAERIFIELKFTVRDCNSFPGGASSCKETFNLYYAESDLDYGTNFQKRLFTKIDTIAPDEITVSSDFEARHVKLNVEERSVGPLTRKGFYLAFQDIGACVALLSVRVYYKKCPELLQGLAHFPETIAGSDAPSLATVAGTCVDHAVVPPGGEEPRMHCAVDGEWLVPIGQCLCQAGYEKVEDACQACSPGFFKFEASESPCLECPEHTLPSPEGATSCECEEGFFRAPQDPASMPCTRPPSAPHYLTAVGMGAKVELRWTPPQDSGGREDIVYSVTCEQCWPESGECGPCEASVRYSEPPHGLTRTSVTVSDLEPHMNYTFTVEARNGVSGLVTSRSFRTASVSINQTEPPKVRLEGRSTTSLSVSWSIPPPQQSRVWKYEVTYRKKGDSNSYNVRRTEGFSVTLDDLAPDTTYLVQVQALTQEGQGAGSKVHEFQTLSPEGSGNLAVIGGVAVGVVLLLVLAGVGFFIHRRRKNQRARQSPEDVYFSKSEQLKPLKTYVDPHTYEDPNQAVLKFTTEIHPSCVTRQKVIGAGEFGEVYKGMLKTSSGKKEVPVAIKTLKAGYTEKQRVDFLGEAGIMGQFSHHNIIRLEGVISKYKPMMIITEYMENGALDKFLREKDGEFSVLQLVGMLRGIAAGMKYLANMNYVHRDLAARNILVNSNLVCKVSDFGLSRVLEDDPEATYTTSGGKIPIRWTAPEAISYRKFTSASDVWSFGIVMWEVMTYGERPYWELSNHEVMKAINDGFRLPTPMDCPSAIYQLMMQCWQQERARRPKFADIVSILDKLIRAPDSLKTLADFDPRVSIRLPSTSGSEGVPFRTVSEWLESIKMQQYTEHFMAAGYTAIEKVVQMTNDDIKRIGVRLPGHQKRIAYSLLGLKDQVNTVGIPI
T9 sequence (Q03145 26-977): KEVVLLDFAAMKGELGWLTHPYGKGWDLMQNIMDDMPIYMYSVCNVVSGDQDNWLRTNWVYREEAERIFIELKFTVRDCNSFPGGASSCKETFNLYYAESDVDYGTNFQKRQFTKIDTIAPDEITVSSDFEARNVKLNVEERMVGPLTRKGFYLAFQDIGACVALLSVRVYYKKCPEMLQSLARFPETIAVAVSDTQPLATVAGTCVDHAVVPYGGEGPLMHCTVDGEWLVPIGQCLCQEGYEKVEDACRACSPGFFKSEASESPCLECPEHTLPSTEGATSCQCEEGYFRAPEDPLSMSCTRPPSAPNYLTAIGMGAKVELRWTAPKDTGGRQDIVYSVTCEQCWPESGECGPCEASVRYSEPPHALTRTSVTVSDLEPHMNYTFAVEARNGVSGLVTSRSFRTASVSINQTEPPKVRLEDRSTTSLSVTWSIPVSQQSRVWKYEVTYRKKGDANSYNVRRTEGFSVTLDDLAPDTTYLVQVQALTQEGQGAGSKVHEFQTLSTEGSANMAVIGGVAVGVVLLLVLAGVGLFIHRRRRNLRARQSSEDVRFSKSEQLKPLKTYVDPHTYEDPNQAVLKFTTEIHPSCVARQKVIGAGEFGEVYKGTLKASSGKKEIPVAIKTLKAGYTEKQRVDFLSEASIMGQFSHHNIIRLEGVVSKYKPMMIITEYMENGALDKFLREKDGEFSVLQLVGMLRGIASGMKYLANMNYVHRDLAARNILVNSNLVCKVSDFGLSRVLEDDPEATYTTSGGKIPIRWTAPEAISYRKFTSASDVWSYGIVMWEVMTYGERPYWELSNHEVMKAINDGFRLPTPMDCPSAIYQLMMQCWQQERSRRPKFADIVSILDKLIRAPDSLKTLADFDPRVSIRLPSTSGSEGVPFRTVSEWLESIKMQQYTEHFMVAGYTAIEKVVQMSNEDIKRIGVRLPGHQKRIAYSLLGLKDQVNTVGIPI
T11 sequence (P54764 23-546 limits assumed): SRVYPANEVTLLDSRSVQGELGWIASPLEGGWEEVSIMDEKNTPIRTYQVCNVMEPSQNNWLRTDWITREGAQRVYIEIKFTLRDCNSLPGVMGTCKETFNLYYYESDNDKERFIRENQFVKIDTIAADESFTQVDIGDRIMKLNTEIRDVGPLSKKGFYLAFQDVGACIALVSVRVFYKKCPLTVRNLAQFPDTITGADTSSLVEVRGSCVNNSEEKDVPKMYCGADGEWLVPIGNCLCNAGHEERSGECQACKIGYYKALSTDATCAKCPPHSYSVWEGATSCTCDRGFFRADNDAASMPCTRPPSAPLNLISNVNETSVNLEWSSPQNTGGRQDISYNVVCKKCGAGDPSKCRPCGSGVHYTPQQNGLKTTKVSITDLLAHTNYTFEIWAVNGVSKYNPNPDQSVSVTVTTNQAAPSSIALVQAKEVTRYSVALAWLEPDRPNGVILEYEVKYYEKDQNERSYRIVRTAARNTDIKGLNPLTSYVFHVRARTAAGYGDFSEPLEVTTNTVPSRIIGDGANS
T10 sequence (P54764 20-986): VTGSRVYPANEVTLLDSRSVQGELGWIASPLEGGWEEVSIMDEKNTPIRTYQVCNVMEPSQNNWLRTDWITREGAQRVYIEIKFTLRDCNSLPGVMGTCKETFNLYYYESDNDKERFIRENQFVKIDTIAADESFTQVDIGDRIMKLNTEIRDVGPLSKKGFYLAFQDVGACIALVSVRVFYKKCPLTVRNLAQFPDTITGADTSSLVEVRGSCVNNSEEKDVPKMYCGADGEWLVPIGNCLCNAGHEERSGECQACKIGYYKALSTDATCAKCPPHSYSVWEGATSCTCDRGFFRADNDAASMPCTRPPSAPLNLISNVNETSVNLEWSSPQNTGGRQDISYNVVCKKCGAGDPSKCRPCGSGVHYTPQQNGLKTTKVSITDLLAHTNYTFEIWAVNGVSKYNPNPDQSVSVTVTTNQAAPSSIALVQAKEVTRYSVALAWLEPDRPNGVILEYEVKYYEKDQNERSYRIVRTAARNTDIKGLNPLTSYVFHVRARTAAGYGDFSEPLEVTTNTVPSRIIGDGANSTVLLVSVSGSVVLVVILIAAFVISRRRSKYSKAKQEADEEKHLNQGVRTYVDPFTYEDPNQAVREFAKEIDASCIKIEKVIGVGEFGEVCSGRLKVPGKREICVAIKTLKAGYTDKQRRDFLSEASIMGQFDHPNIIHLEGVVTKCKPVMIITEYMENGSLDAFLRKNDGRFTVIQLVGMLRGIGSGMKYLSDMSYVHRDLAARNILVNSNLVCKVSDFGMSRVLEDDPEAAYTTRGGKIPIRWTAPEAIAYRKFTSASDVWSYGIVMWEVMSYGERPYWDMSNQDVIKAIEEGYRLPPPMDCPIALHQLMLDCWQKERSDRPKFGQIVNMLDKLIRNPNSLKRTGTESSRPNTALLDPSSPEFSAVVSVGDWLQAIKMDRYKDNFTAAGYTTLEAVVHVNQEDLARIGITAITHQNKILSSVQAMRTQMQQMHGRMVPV
Chain of human 4-1BB on reporter cells (Q07011 24-255): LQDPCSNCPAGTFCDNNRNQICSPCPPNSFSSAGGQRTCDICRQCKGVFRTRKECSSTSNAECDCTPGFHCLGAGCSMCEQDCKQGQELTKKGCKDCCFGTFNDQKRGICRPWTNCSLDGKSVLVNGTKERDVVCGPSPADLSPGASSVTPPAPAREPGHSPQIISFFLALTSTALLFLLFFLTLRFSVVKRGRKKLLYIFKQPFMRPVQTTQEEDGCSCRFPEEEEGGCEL

B1: Urelumab (AB-009811) (antibody, V domains shown)
VH: QVQLQQWGAGLLKPSETLSLTCAVYGGSFSGYYWSWIRQSPEKGLEWIGEINHGGYVTYNPSLESRVTISVDTSKNQFSLKLSSVTAADTAVYYCARDYGPGNYDWYFDLWGRGTLVTVSS
VL: EIVLTQSPATLSLSPGERATLSCRASQSVSSYLAWYQQKPGQAPRLLIYDASNRATGIPARFSGSGSGTDFTLTISSLEPEDFAVYYCQQRSNWPPALTFGGGTKVEIK
[1]
  EC50 (read off the curve), 4-1BB reporter activation with PC3: ~0.3 nM

B2: AB-010699 (antibody, V domains shown)
VH: QVQLQQWGAGLLKPSETLSLTCAVYGGSFSGYYWSWIRQPPGKGLEWIGEINHRGSINYNNYNPSLKSRVTISVDTSKNQFSLKLSSVTAADTAVYYCAKPLRPHCINGVCYSGDAFDIWGQGTMVTVAS
VL: SYVLTQPPSVSVAPGQTARITCGGNNIGYKNVHWYQQKPGQAPVLVVYDDSDRPSGIPERFSGSNSGNTATLTISRVEAGDEADYYCQVWDHSSDHVVFGGGTKLTVL
[2]
  ADCC - EC50 (nM), Trial 1, A549: ~0.014 nM
  ADCC - EC50 (nM), Trial 2, A549: 0.0058 nM
[3]
  EC50 (read off the curve), EphA2 pY588 phosphorylation, soluble agonist titration: ~3e-09 M

B3: AB-010699 human Fab fragment (Fab, V domains shown)
VH: QVQLQQWGAGLLKPSETLSLTCAVYGGSFSGYYWSWIRQPPGKGLEWIGEINHRGSINYNNYNPSLKSRVTISVDTSKNQFSLKLSSVTAADTAVYYCAKPLRPHCINGVCYSGDAFDIWGQGTMVTVAS
VL: SYVLTQPPSVSVAPGQTARITCGGNNIGYKNVHWYQQKPGQAPVLVVYDDSDRPSGIPERFSGSNSGNTATLTISRVEAGDEADYYCQVWDHSSDHVVFGGGTKLTVL
notes: Human Fab format
[4]
  Kd: 8.6 nM
  koff: 0.043 s⁻¹
  kon: 5e+06 M⁻¹ s⁻¹
[5]
  Kd: 8.6 nM
  koff: 0.085 s⁻¹
  kon: 1e+07 M⁻¹ s⁻¹
[6]
  Kd: 12 nM
  koff: 0.072 s⁻¹
  kon: 6.05e+06 M⁻¹ s⁻¹
[7]
  Kd: 12 nM
  koff: 0.07 s⁻¹
  kon: 5.72e+06 M⁻¹ s⁻¹
[8]
  Kd: 9.6 nM
  koff: 0.075 s⁻¹
  kon: 7.78e+06 M⁻¹ s⁻¹
[9]
  Kd: 9.3 nM
  koff: 0.078 s⁻¹
  kon: 8.42e+06 M⁻¹ s⁻¹

B4: AB-010363 (antibody, V domains shown)
VH: QVQLQQWGAGLLKPSETLSLTCAVYGGSFSGYYWSWIRQPPGKGLEWIGEINHRGSINYNNYNPSLKSRVTISVDTSKNQFSLKLSSVTAADTAVYYCAKPLRPHCTNGVCYSGDAFDIWGQGTMVTVAS
VL: SYVLTQPPSVSVAPGQTARITCGGNNIGSKNVHWYQQKPGQAPVLVVYDDSDRPSGIPERFSGSNSGNTATLTISRVEAGDEADYYCQVWDSSSDHVVFGGGTKLTVL
[10]
  ADCC EC50: 9.5 nM
  ADCC Fold-improved (against AB-008873): 3.66 fold
[2]
  ADCC - EC50 (nM), Trial 1, A549: 5.1 nM
  ADCC - EC50 (nM), Trial 2, A549: 4.2 nM
[11]
  ADCC EC50 (nM), parent, A549: 4.65 nM

B5: AB-010699 (mouse IgG2a format) (antibody, V domains shown)
VH: QVQLQQWGAGLLKPSETLSLTCAVYGGSFSGYYWSWIRQPPGKGLEWIGEINHRGSINYNNYNPSLKSRVTISVDTSKNQFSLKLSSVTAADTAVYYCAKPLRPHCINGVCYSGDAFDIWGQGTMVTVAS
VL: SYVLTQPPSVSVAPGQTARITCGGNNIGYKNVHWYQQKPGQAPVLVVYDDSDRPSGIPERFSGSNSGNTATLTISRVEAGDEADYYCQVWDHSSDHVVFGGGTKLTVL
notes: tested in mIgG2a format
[12]
  Kd: 19 nM
  koff: 0.075 s⁻¹
  kon: 3.9e+06 M⁻¹ s⁻¹
[13]
  Kd: 18.9 nM

B6: AB-009815 (antibody, mouse IgG2a, V domains shown)
VH: QVQLQQWGAGLLKPSETLSLTCAVYGGSFSDYYWSWIRQPPGKGLEWIGEVNHRGSINYNNYNPSLKSRVTISVDTSKNQFSLKLTSVTAADTAVYYCAKPLRPHCTNGVCYSGDAFDIWGQGTMVTVAS
VL: SYVLTQPPSVSVAPGQTARITCGGNNIGSKNVHWYQQKPGQAPVLVVYDDSDRPSGIPEQFSGSNSGNTATLTISRVEAGDEADYYCQVWDSSSDHLVFGGGTKLTVL
[14]
  ADCC Delta, A549 cells: 59.8
  ADCC EC50 (nM), A549 cells: 10.4 nM
[15]
  EC50: 5.5 nM
  Flow Delta: 745000
[16]
  EC50 (read off the curve), ADC activity: ~2 nM

B7: AB-008873 (antibody)
heavy: QVQLQQWGAGLLKPSETLSLTCAVYGGSFSDYYWSWIRQPPGKGLEWIGEVNHRGSINYNNYNPSLKSRVTISVDPSKNQFSLKLTSVTAADTAVYYCAKPLRPHCTNGVCYSGDAFDIWGQGTMVTVASAKTTAPSVYPLAPVCGDTTGSSVTLGCLVKGYFPEPVTLTWNSGSLSSGVHTFPAVLQSDLYTLSSSVTVTSSTWPSQSITCNVAHPASSTKVDKKIEPRGPTIKPCPPCKCPAPNLLGGPSVFIFPPKIKDVLMISLSPIVTCVVVDVSEDDPDVQISWFVNNVEVHTAQTQTHREDYNSTLRVVSALPIQHQDWMSGKEFKCKVNNKDLPAPIERTISKPKGSVRAPQVYVLPPPEEEMTKKQVTLTCMVTDFMPEDIYVEWTNNGKTELNYKNTEPVLDSDGSYFMYSKLRVEKKNWVERNSYSCSVVHEGLHNHHTTKSFSRTPG
light: SYVLTQPPSVSVAPGQTARITCGGNNIGSKNVHWYQQKPGQAPVLVVYDDSDRPSGIPEQFSGSNSGNTATLTISRVEAGDEADYYCQVWDSSSDHLVFGGGTKLTVLGQPKSSPSVTLFPPSSEELETNKATLVCTITDFYPGVVTVDWKVDGTPVTQGMETTQPSKQSNNKYMASSYLTLTARAWERHSSYSCQVTHEGHTVEKSLSRADCS
[17]
  ADCC EC50 (nM), EMT6 cells: > 100 nM
[18]
  binding result: no binding
[19]
  fold (MedFI over isotype control): 16 fold
[20]
  binding result: no binding (tested: about 300 nM)
[21]
  binding result: binds
